From patent publication US20030229204A1 (Dana-Farber, published 2003)
Blank lines part the entries; values can stand above or below the binder they belong to.

Tests used:
[1] = target: T1, full-length mouse PGC-1 (aa 1-797) (mouse, UniProt O70343 1-797, [35S]methionine-labeled in the pull-down assays); test: pull-down of in vitro-translated PGC-1 with GST-PPARγ deletion
T1 construct: In vitro reticulocyte translation product in the pull-downs; the same full-length protein was expressed from pSV-SPORT in the transcription assays; also called reticulocyte-translated PGC-1
T1 sequence: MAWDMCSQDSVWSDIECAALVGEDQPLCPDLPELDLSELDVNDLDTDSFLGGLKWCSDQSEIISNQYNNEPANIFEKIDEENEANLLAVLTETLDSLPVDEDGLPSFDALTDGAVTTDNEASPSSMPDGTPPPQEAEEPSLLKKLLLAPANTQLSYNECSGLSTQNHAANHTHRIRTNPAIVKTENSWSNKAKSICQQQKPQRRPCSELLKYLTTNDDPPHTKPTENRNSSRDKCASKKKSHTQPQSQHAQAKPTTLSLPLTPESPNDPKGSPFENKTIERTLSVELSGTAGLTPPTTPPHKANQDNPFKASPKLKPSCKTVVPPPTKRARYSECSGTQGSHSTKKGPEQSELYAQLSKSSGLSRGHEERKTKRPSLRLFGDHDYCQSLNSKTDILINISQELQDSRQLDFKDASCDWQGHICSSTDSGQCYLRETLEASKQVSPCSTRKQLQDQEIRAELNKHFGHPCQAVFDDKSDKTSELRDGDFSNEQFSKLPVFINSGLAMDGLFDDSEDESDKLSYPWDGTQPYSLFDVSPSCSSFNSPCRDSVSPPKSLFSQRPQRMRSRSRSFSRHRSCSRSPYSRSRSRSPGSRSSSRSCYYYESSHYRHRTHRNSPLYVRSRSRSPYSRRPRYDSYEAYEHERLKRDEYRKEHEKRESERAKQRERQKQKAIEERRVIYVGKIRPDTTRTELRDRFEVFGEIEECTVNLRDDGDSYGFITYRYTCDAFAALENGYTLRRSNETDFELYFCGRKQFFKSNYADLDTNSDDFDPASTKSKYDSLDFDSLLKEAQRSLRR
From the text: Most of the nuclear hormone receptor coactivators identified to date interact with the C-terminal AF-2 domain, which is responsible for ligand-dependent transcriptional activation.

[2] = target: T2, GST-PPARγ fusion protein (immobilized PPARγ) (UniProt P37238 1-505); test: pull-down of in vitro-translated 35S-labeled PGC-1 deletion with immobilized GST-PPARγ
T2 construct: also called FST-PPARγ fusion protein; bacterially expressed PPARγ immobilized on beads; not shown: glutathione S-transferase (GST) moiety; printed as 'FST'
T2 sequence (looked up): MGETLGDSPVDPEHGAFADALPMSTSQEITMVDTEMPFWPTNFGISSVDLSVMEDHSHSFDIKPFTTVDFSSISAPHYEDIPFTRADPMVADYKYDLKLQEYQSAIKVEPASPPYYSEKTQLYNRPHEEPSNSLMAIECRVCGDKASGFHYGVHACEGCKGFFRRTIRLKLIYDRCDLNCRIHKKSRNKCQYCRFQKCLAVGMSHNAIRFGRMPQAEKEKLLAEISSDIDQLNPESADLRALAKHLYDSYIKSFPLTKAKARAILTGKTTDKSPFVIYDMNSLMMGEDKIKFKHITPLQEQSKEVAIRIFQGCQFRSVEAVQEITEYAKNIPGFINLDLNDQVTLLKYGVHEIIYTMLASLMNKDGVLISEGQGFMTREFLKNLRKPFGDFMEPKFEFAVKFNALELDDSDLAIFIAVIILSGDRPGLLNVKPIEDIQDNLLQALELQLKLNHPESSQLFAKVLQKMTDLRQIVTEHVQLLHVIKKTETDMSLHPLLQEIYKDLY
From the text: These were then translated into vitro with an [³⁵S]methionine-label. One microliter of each in vitro translation reaction was resolved by SDS-PAGE and autoradigraphed.

- binding result [1]: no binding
B1: GST fusion of PPARγ 228-505 (receptor, mouse, UniProt P37238 228-505, looked up)
chain: DIDQLNPESADLRALAKHLYDSYIKSFPLTKAKARAILTGKTTDKSPFVIYDMNSLMMGEDKIKFKHITPLQEQSKEVAIRIFQGCQFRSVEAVQEITEYAKNIPGFINLDLNDQVTLLKYGVHEIIYTMLASLMNKDGVLISEGQGFMTREFLKNLRKPFGDFMEPKFEFAVKFNALELDDSDLAIFIAVIILSGDRPGLLNVKPIEDIQDNLLQALELQLKLNHPESSQLFAKVLQKMTDLRQIVTEHVQLLHVIKKTETDMSLHPLLQEIYKDLY
notes: not shown: glutathione S-transferase (GST) moiety of pGEX 5X2

- binding result [2]: no binding
B2: PGC-1 1-292 (other)
chain: MAWDMCSQDSVWSDIECAALVGEDQPLCPDLPELDLSELDVNDLDTDSFLGGLKWCSDQSEIISNQYNNEPANIFEKIDEENEANLLAVLTETLDSLPVDEDGLPSFDALTDGAVTTDNEASPSSMPDGTPPPQEAEEPSLLKKLLLAPANTQLSYNECSGLSTQNHAANHTHRIRTNPAIVKTENSWSNKAKSICQQQKPQRRPCSELLKYLTTNDDPPHTKPTENRNSSRDKCASKKKSHTQPQSQHAQAKPTTLSLPLTPESPNDPKGSPFENKTIERTLSVELSGTAG
modifications: [35S]methionine-labeled
notes: In vitro translated; still contains the LXXLL motif (aa 142-146)
